Measured values: the DeepSol protein solubility set

Assay: soluble on expression in E. coli; label from the status in PepcDB or PDB records

Sequence	soluble on expression in E. coli
MSLTYDLLITDSHVITPKGMVEKNIVVENGKIELITNDSPDCDKKINGSGLVSIPGLIDPHVHYGVYSPIDQAAISESHAAAIGGVTTMIRMFRLKGSYKESLNKHLLASQNSHYIDYTLHASIFDDSQISEMQYCAENKIISFKIYMNLGGDVGHVYMEMNPGEEKLIAAEVNVTNELVEKIVKNAASLKCPVLVHAEDYQECSCGMKTEKEKNHDGLNAWSESRSPNFEAKSIQIICEYGRKYDCQIYFVHIGSKLALDKIKEEKKKGTKIFVETCPHYLTLSHETQTGYLAKVMPPIRTNNDVQSVWNALQNNEIDTIGTDHVANQLKLKLGGDDVWGALAGFPGIGTSLPILLSEGINKNRINLNQLANLTSTNSAKIFGLSGKGSLEKGYDADITMIDLKKEEKVSPELFGGFSDYLVYDGWNLKGWPVKTIVRGTVVAEDFEVIGKPGYGNFVPRKLSEGHHHHHH	not soluble
MGSDKIHHHHHHMRGEKNELLSWINNFVEVNNKAIDNSFEKFKSEPSNQYNLPFKNVSWYTLRKTLADNVEESKKARGCLYAVLDYNESELKELGLILNSNLHSIKKIANKIMQNAGIEFQFRFEAIMRLLLDKKNNLMLLNIPDLKRIKICLENFLSLRTTFRELVKQLLNDYNSNKESIKSENIKLGDYLNKAFSDIVLSMDKNPINLEKEIRNIIVI	not soluble
ASNIYKIKEENKNEDICFIAGIGDTNGYGWGIAKELSKRNVKIIFGIWPPVYNIFMKNYKNGKFDNDMIIDKDKKMNILDMLPFDASFDTANDIDEETKNNKRYNMLQNYTIEDVANLIHQKYGKINMLVHSLANAKEVQKDLLNTSRKGYLDALSKSSYSLISLCKYFVNIMKPQSSIISLTYHASQKVVPGYGGGMSSAKAALESDTRVLAYHLGRNYNIRINTISAGPLKSRAATAINKLNNTYENNTNQNKNRNSHDVHNIMNNSGEKEEKKNSASQNYTFIDYAIEYSEKYAPLRQKLLSTDIGSVASFLLSRESRAITGQTIYVDNGLNIMFLPDDIYRNENE	soluble
MTEKKSDRTAAKKRSEQAVHELVTRIDTHPGDADAYYELATVLVDLKSFAQAEELLMKALGLFQAQPAVVDKLHYGLGNVYYAAEDYPKAIQQFDSLGAQWKGAGYLMLAQSYMANGDHKRALAFALTALASQPDDVATLQVVAENLLALGNMAQAAQYYDQLLAIDPKNGRAIFDRGLVAMVQGTPYADYFERAQTLDPQYFEQGQQRLADIEKFMQQTPDSDQQLEHHHHHH	soluble
MAAISFPLLQLPNFALNKTLKLMCVVPHLYLSIISKKAKRCITAVNEKPLYVHINKASSISLRLTTKSFQNFEFIITPGQSDLEIRKYITTRPLFNSYLSTNQCVLGVTAKQWIELIAQVFIQDKGVLLKLQNSNKFNIKEIQYYTRELNIVRLKIESSELQDTQLSKMFPKVEELTVTRDKIPSSILSRNFKKLRFDDIKVSLDNILISNCSSFLIFLQTLPDKDLNRFMKLWIKESNPNLKTFEVCFPDYEQTGLDGTILFKGIRCIDSIKHGEVTRKKFKRHDGTTALVSVFASTSFHFCMTVVG	not soluble
VVKLAFPRELRLLTPSQFTFVFQQPQRAGTPQITILGRLNSLGHPRIGLTVAKKNVRRAHERNRIKRLTRESFRLRQHELPAMDFVVVAKKGVADLDNRALSEALEKLWRRHCRLARGS	soluble
MGSDKIHHHHHHMIDARVKFRHLQTFVEVARQKSVVKAAELLHVTQPAVTKTIRELEEVLGVAVFEREGRGIKITRYGEVFLRHAGAALTALRQGLDSVSQERSGEGPPIRVGALPTVSTRIMPRAIALFLKEKTGARIKIVTGENAVLLEQLRIGDLDLVVGRLAAPDKMTGFSFEHLYSEQVVFAVRAGHPLISGRQSLFAHLSDYPVLMPTRASIIRPFVEHFLIANGIAGLPNQIETVSDSFGRAFVRSSDAIWIISAGVVATDIADGVLAALPVDTSETRGPVGLTMRTDAIPSLPLSILMQTLREVAGTAMAAEAKRTA	not soluble
MGLWYRMLENQDLEEVITVRVQDPRVQNEGSWNSYVDYKIFLHTNSKAFTAKTSCVRRRYREFVWLRKQLQRNAGLVPVPELPGKSTFFGGSDEFIEKRRQGLQHFLEKVLQSVVLLSDSQLHLFLQSQLSVPEIEACVQGRGAMTVSDAILSYAMSNCGWAQEERQSTSHLAKGDQLNSCCFLPRSGRRSSPSPPLSEEKEQLETWAPVMDSEGPSSESPTLLPSSSLPACWDPARPEEGLSVSQPARRAVAADQAGPMEPTQLDTAWDK	soluble
MSLDRLIHWYNMAVYPSIFATMLPVDPRRALGAFLRSHRERLPPPPLALGRRRTPGWRREELAEACGVSLTWITWLEQGRDVSASPHALARLAEALHLAPAERGYLFELAGRRDPVSPVASDDGIPPAVLALPGHMNVPAYLLDRTWTARAWNSAASRLFTGWLDGDHDRNLLRFIFLSPAAPRLIADWDQRAHRVVAEFRADFSRRLRDPALQALVESLAAQSQAFRTLWHEQAVLDREGGERSFLNPARRFHQSTLILAANADIKLVSLVPMDGEEFEGHHHHHH	soluble
MARARKGALVQCDPSIKALILQIDAKMSDIVLEELDDTHLLVNPSKVEFVKHELNRLLSKNIYNPMDEEENQ	soluble
MNRTPSLHTKEKKGFIDMHTMWKGSISFGLVNIPIKLYAATEDKDIKLRSLHKEDHAPIKYEKVCTNCEKTLSPDEIVKGYEYVKGKYVVLTDEDLKSLKQEHEEKAVEIVDFVQLQEIDPIYFNRSYFVGPGDNGTKAYTLLREALRSTGKIGIANMTIRSKQQLAILRVYENCIVMESIHYPDEVRS	not soluble
MSLSLFDMFKVGIGPSSSHTVGPMKAGKQFVDDLVEKGLLDNVTRVAVDVYGSLSLTGKGHHTDIAIIMGLAGNEPATVDIDSIPGFIRDVETRERLLLAQGRHEVDFPKDDGMRFHNGNLPLHENGMQIHAWHDDTVIYSKTYYSIGGGFIVDEEHFGQEATNEVTVPYPFKSAKEMLEYCNSTGLSLSGMVMQNELALHSKKEIEEYFGHVWQTMQACIDRGMNTEGVLPGPLRVPRRASALRRMLVSSDKLSSDPMNVIDWVNMFALAVNEENAAGGRVVTAPTNGACGIVPAVLAYYDHFIESVSPDIYTRYFLAAGAIGALYKMNASISGAEVGCQGEVGVACSMAAAGLAELLGASPEQVCVAAEIGMEHNLGLTCDPVAGQVQVPCIERNAIASVKAINAARMAMRRTSAPRVSLDKVIETMYETGKDMNAKYRETSRGGLAIKVQCDEGHHHHHH	soluble
GSGIIEFHVIGNSLTPKANRRVLLWLVGLQNVFSHQLPRMPKEYIARLVFDPKHKTLALIKDGRVIGGICFRMFPTQGFTEIVFCAVTSNEQVKGYGTHLMNHLKEYHIKHNILYFLTYADEYAIGYFKKQGFSKDIKVPKSRYLGYIKDYEGATLMECELNPRIPYT	soluble
GCGVEEKTEVQLLKEMPKPKAMTIDPSLSQKEATEMVHAAQRFYAFWDTGKEELIPQTVTENFFDHTLPKGRPQGTEGLKFAAQNFRKIVPNIHCEIEDLLVVGDKVTARLSFTGTHNDKKIDFFAIDILHVKDGKITEDWHLEDNLTLKQQLGLIAEE	soluble
MVWFFFSCDEYNEEILKTNSGYWKETVSNTPIIGKWITSNGVKIGEKQVLVFQSYENINGSKSDWVMHVYQPTFLPPNQVIFRIYDV	soluble
MLAAFISRVLRRVAQKSARRVLVASRNSSNDATFEIKKCDLYLLEEGPPVTTVLTRAEGLKYYRMMLTVRRMELKADQLYKQKFIRGFCHLCDGQEACCVGLEAGINPSDHVITSYRAHGVCYTRGLSVRSILAELTGRRGGCAKGKGGSMHMYTKNFYGGNGIVGAQGPLGAGIALACKYKGNDEICLTLYGDGAANQGQIAEAFNMAALWKLPCVFICENNLYGMGTSTERAAASPDYYKRGNFIPGLKVDGMDVLCVREATKFAANYCRSGKGPILMELQTYRYHGHSMSDPGVSYRTREEIQEVRSKRDPIIILQDRMVNSKLATVEELKEIGAEVRKEIDDAAQFATTDPEPHLEELGHHIYSSDSSFEVRGANPWIKFKSVS	soluble
MKVAIVGVSGAVGQEFLRVLDERNFPMDELVLFGSKRSAGTTYTFRGKQIEVKLLQHNDDFKGVDIAFTSAGAGTSKEFEKTITKYGAVMIDNSSAFRMDADVPLVVPEVNAADALERPRGVIANPNCTTIQMVVALKAIEQLSHIKTVHVSTYQAASGAGAAAMDELYEQYRQVLANEPVTVEKFAYQLAFNLIPQIDVFTENGYTKEEMKMYNETRKIMHSDVKVSATCVRVPALRAHSESIWVETERPISVEEAREAFAKGEGLVLQDNPAEKEYPMPLFLAGKDPVYVGRIRKDLTNENGLTFWIVGDQIKKGAALNAVQIAEYLIKVKNV	not soluble
